Data: patent US10889629B2, “Transfected T-cells and T-cell receptors for use in immunotherapy against cancers” (IMMATICS BIOTECHNOLOGIES GMBH, priority 2016, dated 2021)
“Also recorded” adds a separate entry of the source. One block for each molecule: values may come before it.

Key:
MHC/MAG-003 complex = biological target: T1, MHC/MAG-003 complex (Homo sapiens, UniProt P04439+P43358, D140Y/D185E/D98H/E176V/E277Q/G131W/G231S/I119V/I121R/I166T/I218V/L300P/L318F/N151K/N90K/P208A/P217A/Q86G/Q94H/R138H/R169H/T345S); assay: IFN-γ release assay: TCR-RNA-electroporated CD8+ T-cells co-incubated with peptide-loaded target cells; format: cell-based; details: for EC50: target peptide (MAG-003) titration, IFN-γ release
T1 construct: endogenous in cells
Procedure: In another aspect, to obtain T-cells expressing TCRs of the present description, TCR RNAs were synthesized by techniques described in the art, e.g., in vitro transcription systems. The in vitro-synthesized TCR RNAs were then introduced into primary CD8+ T-cells obtained from healthy donors by electroporation to re-express tumor specific TCR-alpha and/or TCR-beta chains.
To determine specificity and affinity of TCRs, the transformed CD8+ T-cells were co-incubated with MAG-003-loaded target cells or with target cells loaded with homologous but unrelated peptide RABGAP1L-001 (SEQ ID NO:91), AXIN1-001 (SEQ ID NO:92), ANO5-001 (SEQ ID NO:93), TPX2-001 (SEQ ID NO:94), SYNE3-001 (SEQ ID NO:95), MIA3-001 (SEQ ID NO:96), HERC4-001 (SEQ ID NO:97), PSME2-001 (SEQ ID NO:98), HEATR5A-001 (SEQ ID NO:99) or CNOT1-003 (SEQ ID NO:100) or control peptide NYESO1-001 (SEQ ID NO:101), followed by IFN-γ release assay. Unloaded target cells and CD8+ T-cells alone served as controls. IFN-γ secretion from CD8+ T-cells is indicative of T-cell activation with cytotoxic activity.
As shown in FIGS. 5-7 all primary CD8+ T-cells transformed with TCRs of the present disclosure, after co-incubation with MAG-003-loaded target cells, released much higher levels of IFN-γ than that stimulated by unrelated peptide-loaded target cells, and the controls.

MHC/MAG-003 tetramer = MHC/MAG-003 tetramer (Homo sapiens, UniProt P04439+P43358, D140Y/D185E/D98H/E176V/E277Q/G131W/G231S/I119V/I121R/I166T/I218V/N151K/N90K/P208A/P217A/Q86G/Q94H/R138H/R169H); assay: Tetramer staining of TCR-RNA-electroporated CD8+ T-cells, MHC/MAG-003 tetramer; format: binding
From the text: (§1) FIG. 8 show MHC/MAG-003 tetramer or MHC/NYESO1-001 tetramer staining of CD8+ T-cells electroporated with alpha and beta chain RNA of TCRs R7P1 D5, R20P1H7 and R10P2G12 (Table 2), respectively. CD8+ T-cells electroporated with RNA of 1G4 TCR that specifically binds to MHC/NYESO1-001 complex and mock electroporated CD8+ T-cells served as controls.
(§2) T-cell activation was further confirmed using a tetramer staining technique to detect MHC/MAG-003-binding activated cytotoxic T-cells. As shown in FIG. 8 and Table 11, a higher percentage of TCR-expressing CD8+ T-cells were stained positive fluorescent-labeled MHC/MAG-003 tetramer than that with MHC/NYESO1-001 control tetramer or mock control. […] The alpha and beta chains of TCR 1G4 are shown in SEQ ID NO:89 and 90, respectively: […]

MHC/NYESO1-001 tetramer = assay: Tetramer staining of TCR-RNA-electroporated CD8+ T-cells, MHC/NYESO1-001 control tetramer; format: binding, human
From the text: as §1, §2

[1] = test system: A-375 (human melanoma cell line, positive for HLA-A2 and MAG-003 expression); assay: IFNγ release, TCR-expressing CD8+ T-cells co-incubated with A-375; format: cell-based; details: for IFNγ release: Example 4, A-375, HLA-A2-positive and MAG-003-positive; for T-cell activation (IFN-γ release): Example 6, A-375 expressing HLA-A*02 and MAGEA4
Procedure: (§3) To determine efficacy of T-cells expressing TCRs described herein, primary CD8+ T-cells electroporated with RNA of the TCRs R7P1 D5, R20P1H7 and R10P2G12 were co-incubated with different human cancer cell lines, e.g., A-375 (human melanoma cell line, which is positive for HLA-A2 and MAG-003 expression), T98G (human glioblastoma cell line, which is HLA-A2-positive and MAG-003-negative), and SK-BR-3 (human breast cancer cell line, which is HLA-A2-negative and MAG-003-negative), followed by IFNγ release assay.
(§4) TCRs of interest were expressed in human T cells via RNA electroporation and the T cells were assessed for IFN-γ release after co-culture with different target cells, such as T2 cells loaded with different peptides as well as tumor cell lines and primary cells from healthy tissues. T-cell activation data are shown in absolute IFN-γ levels or a normalized way as indicated below.
(§5) Efficacy of CD8+ T cells expressing TCRs R7P1 D5, R10P2G12 and R20P1H7 was determined by T cell activation studies (IFN-γ release) using different tumor cell lines as target cells. The characterization of the safety profile of TCRs of interest was approached by testing the potential activation of TCR-expressing T cells upon co-culture with isolated primary cell types from healthy tissues and induced pluripotent stem cell (iPSC)-derived cell types from HLA-A*02-positive donors (Table 13). Cell types were selected in a manner to cover most of the critical organs like e.g. brain, heart and liver and different cell types as epithelium, endothelium or smooth muscle. Tumor cell lines were analyzed side-by-side as positive and negative controls.
(§6) Normalization Method for IFNγ Release: Meannorm(TCRoi;co)=[mean(TCRoi;co)−mean(TCRoi;effector only)]−[mean(mock;co)−mean(mock;effector only)]

[2] = test system: T98G (human glioblastoma cell line, HLA-A2-positive and MAG-003-negative); assay: IFNγ release, TCR-expressing CD8+ T-cells co-incubated with T98G; format: cell-based; details: Example 4, T98G, compared with effector cell only control
Procedure: as §3

[3] = test system: SK-BR-3 (human breast cancer cell line, HLA-A2-negative and MAG-003-negative); assay: IFNγ release, TCR-expressing CD8+ T-cells co-incubated with SK-BR-3; format: cell-based; details: Example 4, SK-BR-3, compared with effector cell only control
Procedure: as §3

[4] = test system: human non-small cell cancer cell line, H1755 (NCI-H1755); assay: IFNγ release, TCR-expressing CD8+ T-cells co-incubated with H1755; format: cell-based; details: for T-cell activation (IFN-γ release): Example 6, NCI-H1755 expressing HLA-A*02 and MAGEA4
Procedure: as §3, §4, §5, §6

[5] = test system: HLA-A*02 positive cell types from healthy tissues; assay: Safety: IFN-γ release upon co-culture with primary and iPSC-derived cell types from healthy tissues; format: cell-based, human; details: E:T ratio 1:1, 20 h, ELISA, normalized
From the text: FIG. 13 T cells transfected with RNA coding for TCR R7P1 D5, R10P2G12, R20P1H7, mock or the control TCR 1G4 (SEQ ID NO:X) were co-cultured with different primary human healthy tissue cells (see table 13 for abbreviations), the target negative tumor cell line MCF-7 and the MAGEA4- and NY-ESO1-positive cell lines A-375 and NCI-H1755. TCRs R7P1D5, R10P2G12, R20P1H7 and 1G4 expression in T cells was achieved by electroporation using an RNA vector. […] E:T ratio 1:1, 20,000 cells each, mean of IFN-γ release after 20 h from replicates is shown as measured by ELISA. Error bars indicate standard deviations. Results were normalized by subtraction of IFN-γ release from TCR-transfected T cells only and IFN-γ release due to co-culture of Target cells and T cells not expressing TCR of interest.
as §4, §5, §6
The respective CVnorm was calculated: CVnorm(TCRoi;co)=[CV(TCRoi;co)^2+CV(TCRoi;effector only)^2+CV(mock;co)^2+CV(mock;effector only)^2]^[½] TCRoi=effector cells expressing TCR of interest Mock=effector cells without exogenous TCR expression Co=effector cells co-cultured with target cells Effector only=effector cells not co-cultured Mean(norm)=mean IFNγ release (normalized) CV(norm)=coefficient of variation (normalized) Results: […]

- EC50 (MHC/MAG-003 complex): ~3 nM
- % MAG-003 TET-positive primary CD8+ T-cells (MHC/MAG-003 tetramer): 7.99%
B1: R7P1D5: TCR, alpha chain SEQ ID NO:55 and beta chain SEQ ID NO:63, MAG-003-specific, from HLA-A2 positive donor (protein, listed as Homo sapiens)
alpha: MKTFAGFSFLFLWLQLDCMSRGEDVEQSLFLSVREGDSSVINCTYTDSSSTYLYWYKQEPGAGLQLLTYIFSNMDMKQDQRLTVLLNKKDKHLSLRIADTQTGDSAIYFCAEYSSASKIIFGSGTRLSIRPNIQNPDPAVYQLRDSKSSDKSVCLFTDFDSQTNVSQSKDSDVYITDKTVLDMRSMDFKSNSAVAWSNKSDFACANAFNNSIIPEDTFFPSPESSCDVKLVEKSFETDTNLNFQNLSVIGFRILLLKVAGFNLLMTLRLWSS
beta: MGSWTLCCVSLCILVAKHTDAGVIQSPRHEVTEMGQEVTLRCKPISGHDYLFWYRQTMMRGLELLIYFNNNVPIDDSGMPEDRFSAKMPNASFSTLKIQPSEPRDSAVYFCASRANTGELFFGEGSRLTVLEDLKNVFPPEVAVFEPSEAEISHTQKATLVCLATGFYPDHVELSWWVNGKEVHSGVSTDPQPLKEQPALNDSRYCLSSRLRVSATFWQNPRNHFRCQVQFYGLSENDEWTQDRAKPVTQIVSAEAWGRADCGFTSESYQQGVLSATILYEILLGKATLYAVLVSALVLMAMVKRKDSRG
- % NYESO1-001 TET-positive primary CD8+ T-cells (MHC/NYESO1-001 tetramer): 0.87%
- IFNγ release [1]: IFNγ release was observed
- T-cell activation (IFN-γ release) [1]: activity
- IFNγ release [2]: basal levels of IFNγ release
- IFNγ release [3]: basal levels of IFNγ release
- IFNγ release ([4]; Example 4, H1755, data not shown): increased IFNγ release
- T-cell activation (IFN-γ release) [4]: activity
- T-cell activation (IFN-γ release) by healthy tissue cells [5]: did not lead to significant TCR-mediated recognition and T-cell activation
- T-cell activation (IFN-γ release) by healthy tissue cells ([5]; listed as R7P1 D5): no activation was observed

- % MAG-003 TET-positive primary CD8+ T-cells (MHC/MAG-003 tetramer): 5.38%
B2: R10P2G12: TCR, alpha chain SEQ ID NO:71 and beta chain SEQ ID NO:79, MAG-003-specific (protein, listed as Homo sapiens)
alpha: MLTASLLRAVIASICVVSSMAQKVTQAQTEISVVEKEDVTLDCVYETRDTTYYLFWYKQPPSGELVFLIRRNSFDEQNEISGRYSWNFQKSTSSFNFTITASQVVDSAVYFCALSEGNSGNTPLVFGKGTRLSVIANIQNPDPAVYQLRDSKSSDKSVCLFTDFDSQTNVSQSKDSDVYITDKTVLDMRSMDFKSNSAVAWSNKSDFACANAFNNSIIPEDTFFPSPESSCDVKLVEKSFETDTNLNFQNLSVIGFRILLLKVAGFNLLMTLRLWSS
beta: MGIRLLCRVAFCFLAVGLVDVKVTQSSRYLVKRTGEKVFLECVQDMDHENMFWYRQDPGLGLRLIYFSYDVKMKEKGDIPEGYSVSREKKERFSLILESASTNQTSMYLCASSLSSGSHQETQYFGPGTRLLVLEDLKNVFPPEVAVFEPSEAEISHTQKATLVCLATGFYPDHVELSWWVNGKEVHSGVSTDPQPLKEQPALNDSRYCLSSRLRVSATFWQNPRNHFRCQVQFYGLSENDEWTQDRAKPVTQIVSAEAWGRADCGFTSESYQQGVLSATILYEILLGKATLYAVLVSALVLMAMVKRKDSRG
- % NYESO1-001 TET-positive primary CD8+ T-cells (MHC/NYESO1-001 tetramer): 0.87%
- IFNγ release [1]: IFNγ release was observed
- T-cell activation (IFN-γ release) [1]: activity
- IFNγ release [2]: basal levels of IFNγ release
- IFNγ release [3]: basal levels of IFNγ release
- T-cell activation (IFN-γ release) [4]: activity
- T-cell activation (IFN-γ release) by healthy tissue cells [5]: no activation was observed; also recorded: did not lead to significant TCR-mediated recognition and T-cell activation

- IFNγ (MHC/MAG-003 complex; CD8+ T-cells electroporated with TCR RNA, co-incubation with MAG-003-loaded target cells): 200 to 900 pg/mL
- EC50 (MHC/MAG-003 complex): ~10 nM
- % MAG-003 TET-positive primary CD8+ T-cells (MHC/MAG-003 tetramer): 5.73%
B3: R20P1H7: TCR, alpha chain SEQ ID NO:39 and beta chain SEQ ID NO:47, MAG-003-specific (protein, listed as Homo sapiens)
alpha: MEKMLECAFIVLWLQLGWLSGEDQVTQSPEALRLQEGESSSLNCSYTVSGLRGLFWYRQDPGKGPEFLFTLYSAGEEKEKERLKATLTKKESFLHITAPKPEDSATYLCAVQGENSGYSTLTFGKGTMLLVSPDIQNPDPAVYQLRDSKSSDKSVCLFTDFDSQTNVSQSKDSDVYITDKTVLDMRSMDFKSNSAVAWSNKSDFACANAFNNSIIPEDTFFPSPESSCDVKLVEKSFETDTNLNFQNLSVIGFRILLLKVAGFNLLMTLRLWSS
beta: MGPQLLGYVVLCLLGAGPLEAQVTQNPRYLITVTGKKLTVTCSQNMNHEYMSWYRQDPGLGLRQIYYSMNVEVTDKGDVPEGYKVSRKEKRNFPLILESPSPNQTSLYFCASSLGPGLAAYNEQFFGPGTRLTVLEDLKNVFPPEVAVFEPSEAEISHTQKATLVCLATGFYPDHVELSWWVNGKEVHSGVSTDPQPLKEQPALNDSRYCLSSRLRVSATFWQNPRNHFRCQVQFYGLSENDEWTQDRAKPVTQIVSAEAWGRADCGFTSESYQQGVLSATILYEILLGKATLYAVLVSALVLMAMVKRKDSRG
- % NYESO1-001 TET-positive primary CD8+ T-cells (MHC/NYESO1-001 tetramer): 0.87%
- IFNγ release [1]: IFNγ release was observed
- T-cell activation (IFN-γ release) [1]: activity
- IFNγ release [2]: basal levels of IFNγ release
- IFNγ release [3]: basal levels of IFNγ release
- T-cell activation (IFN-γ release) [4]: activity
- T-cell activation (IFN-γ release) by healthy tissue cells [5]: no activation was observed; also recorded: did not lead to significant TCR-mediated recognition and T-cell activation
